# Data: the Human Domainome abundance scans (Beltran et al. 2025)
# ± gives the uncertainty stated by the source.
# B1: Segment polarity protein dishevelled homolog DVL-3, residues 2 to 81; numbered along this chain, Q92997 (parent)
# chain: GETKIIYHLDGQETPYLVKLPLPAERVTLADFKGVLQRPSYKFFFKSMDDDFGVVKEEISDDNAKLPCFNGRVVSWLVSA
# Variants of: B1
# Test: abundance fitness (aPCA) (normalised: wild type 0, dead -1); higher = more abundant; growth selection in yeast, the domain comes from the species named
# Settings: Homo sapiens
row,Variant,abundance fitness
1,L77G,-0.572 ± 0.11
2,L77S,-0.831 ± 0.11
3,L77T,-0.243 ± 0.099
4,L77K,-0.261 ± 0.13
5,L77I,-0.358 ± 0.088
6,L77P,-0.929 ± 0.28
7,F69Q,-0.423 ± 0.22
8,F69S,-0.163 ± 0.057
9,F69H,0.001 ± 0.076
10,F69M,-0.201 ± 0.11
11,F69Y,0.061 ± 0.076
12,F69E,-0.108 ± 0.17
13,F69L,-0.214 ± 0.07
14,F69K,-0.146 ± 0.12
15,F69A,-0.613 ± 0.12
16,F69C,-0.148 ± 0.062
17,F69N,-0.361 ± 0.085
18,F69V,-0.078 ± 0.053
19,F69D,-0.352 ± 0.087
20,F69G,-0.605 ± 0.089
21,F69R,-0.272 ± 0.073
22,F69P,-0.918 ± 0.26
23,F69T,-0.352 ± 0.1
24,F69W,-0.191 ± 0.14

row,Variant,abundance fitness
1,V74K,-0.953 ± 0.24
2,V74Q,-0.777 ± 0.31
3,V74W,-0.243 ± 0.12
4,V74Y,0.236 ± 0.05
5,V74E,0.195 ± 0.099
6,V74R,-0.446 ± 0.1
7,V74H,-0.249 ± 0.083
8,V74M,-0.198 ± 0.14
9,V74C,-0.658 ± 0.12
10,V74P,-0.981 ± 0.27
11,V74D,-0.593 ± 0.12
12,V74A,-0.585 ± 0.15
13,V74N,-0.511 ± 0.092
14,V74F,-0.066 ± 0.056
15,V74G,-0.716 ± 0.1
16,V74L,-0.427 ± 0.088
17,K65N,-0.139 ± 0.12
18,K65F,-0.284 ± 0.15
19,K65H,0.091 ± 0.16
20,K65Y,0.093 ± 0.11
21,K65D,-0.914 ± 0.22
22,K65R,-0.032 ± 0.049
23,K65P,-0.135 ± 0.066
24,K65V,0.072 ± 0.059

row,Variant,abundance fitness
1,K65L,-0.005 ± 0.06
2,K65I,0.263 ± 0.1
3,K65M,-0.264 ± 0.12
4,K65Q,0.127 ± 0.074
5,K65S,-0.195 ± 0.068
6,K65C,-0.183 ± 0.13
7,K65E,-0.821 ± 0.14
8,K65G,-0.47 ± 0.071
9,N63G,-0.175 ± 0.041
10,N63S,-0.104 ± 0.054
11,N63R,-0.238 ± 0.042
12,N63F,-0.661 ± 0.21
13,N63K,-0.175 ± 0.07
14,N63C,-0.157 ± 0.087
15,N63V,-0.59 ± 0.075
16,N63Q,-0.113 ± 0.069
17,N63I,-0.766 ± 0.24
18,N63T,-0.119 ± 0.061
19,N63A,-0.184 ± 0.057
20,N63Y,-0.33 ± 0.12
21,N63H,-0.093 ± 0.12
22,N63E,0.009 ± 0.059
23,N63L,-0.615 ± 0.08
24,A80C,-0.015 ± 0.1

row,Variant,abundance fitness
1,A80Q,-0.029 ± 0.29
2,A80Y,-0.405 ± 0.19
3,A80S,0.088 ± 0.067
4,A80H,-0.089 ± 0.15
5,A80E,0.191 ± 0.33
6,A80D,0.267 ± 0.086
7,A80R,-0.164 ± 0.14
8,A80F,-0.098 ± 0.14
9,A80M,-0.101 ± 0.26
10,A80V,-0.105 ± 0.11
11,A80N,0.11 ± 0.095
12,A80I,-0.004 ± 0.082
13,A80L,-0.239 ± 0.13
14,A80K,0.212 ± 0.21
15,A80T,0.185 ± 0.089
16,A80G,0.014 ± 0.091
17,W76K,-0.709 ± 0.12
18,W76Y,-0.456 ± 0.2
19,W76Q,-0.943 ± 0.17
20,W76H,-1.2 ± 0.38
21,W76I,-1.4 ± 0.5
22,W76R,-0.72 ± 0.075
23,W76E,-0.891 ± 0.14
24,W76G,-0.648 ± 0.079

row,Variant,abundance fitness
1,W76P,-0.625 ± 0.13
2,W76C,-0.737 ± 0.19
3,W76V,-0.565 ± 0.088
4,W76N,-0.661 ± 0.27
5,W76T,-0.579 ± 0.1
6,W76M,-0.678 ± 0.13
7,W76L,-0.842 ± 0.12
8,W76F,-0.482 ± 0.23
9,D61Q,-0.082 ± 0.086
10,D61M,-0.335 ± 0.11
11,D61T,-0.985 ± 0.18
12,D61L,-0.763 ± 0.1
13,D61V,-0.695 ± 0.093
14,D61W,-0.679 ± 0.098
15,D61S,-0.594 ± 0.082
16,D61P,-0.566 ± 0.12
17,D61Y,-0.666 ± 0.21
18,D61N,-0.33 ± 0.17
19,S75F,-0.793 ± 0.12
20,S75T,-0.519 ± 0.11
21,S75I,-0.459 ± 0.089
22,S75K,-0.967 ± 0.29
23,S75H,-0.6 ± 0.15
24,S75C,0.099 ± 0.05

row,Variant,abundance fitness
1,S75G,-0.221 ± 0.063
2,S75W,-0.603 ± 0.21
3,S75V,-0.161 ± 0.058
4,S75M,-0.726 ± 0.2
5,S75N,-0.899 ± 0.12
6,S75E,-0.782 ± 0.22
7,S75R,-0.606 ± 0.1
8,S75Y,-0.669 ± 0.1
9,S75P,-0.59 ± 0.16
10,S75D,-0.723 ± 0.11
11,S75L,-0.463 ± 0.093
12,D62Y,-0.604 ± 0.26
13,D62R,-0.709 ± 0.082
14,D62S,-0.748 ± 0.11
15,D62Q,-0.603 ± 0.13
16,D62M,-0.441 ± 0.11
17,D62I,-0.744 ± 0.28
18,D62N,-0.307 ± 0.14
19,D62P,-0.575 ± 0.11
20,D62G,-0.818 ± 0.093
21,D62T,-0.906 ± 0.17
22,D62F,-0.536 ± 0.25
23,D62L,-0.563 ± 0.081
24,D62W,-0.929 ± 0.16

row,Variant,abundance fitness
1,D62C,-1.05 ± 0.28
2,D62A,-0.875 ± 0.14
3,D62V,-0.674 ± 0.096
4,C68D,-0.624 ± 0.13
5,C68E,-0.645 ± 0.34
6,C68P,-0.759 ± 0.21
7,C68A,-0.003 ± 0.087
8,C68L,0.061 ± 0.074
9,C68I,-0.049 ± 0.071
10,C68M,-0.22 ± 0.13
11,C68Q,-0.189 ± 0.23
12,C68T,0.103 ± 0.079
13,C68N,-0.117 ± 0.073
14,C68G,-0.699 ± 0.1
15,C68R,-0.875 ± 0.16
16,C68W,-0.793 ± 0.23
17,C68F,-0.112 ± 0.071
18,C68S,0.081 ± 0.051
19,C68H,0.143 ± 0.069
